# Where no end group is shown, it is not given here. The star is where a group is joined. Mal‑DOTA = maleimido-mono-amide-DOTA, O=C(O)CN1CCN(CC(=O)O)CCN(CC(=O)NCCN2C(=O)CC(*)C2=O)CCN(CC(=O)O)CC1; maleimide‑DOTA = maleimide-DOTA
# B1: PEP08296 (designed binder)
# chain: GSLAEAKEAANAELDC(Mal‑DOTA)YGVSDFYKRLIDKAKTVEGVEALKDAILAALPG
# notes: also called DOTA-conjugated PEP08185
# B2: PEP06923 (designed binder)
# chain: GSSLAEAKVLANRELDKYGVSDFYKRLINKAKTVEGVEALKLHILAALP
# notes: Expressed as MGSS-[PP###]; also called non-inventive polypeptide
# B3: PEP07986 (designed binder)
# chain: GSLAEAKEAANAELDSYGVSDFYKRLIDKAKTVEGVEALKDAILAALP
# B4: PEP07975 (designed binder)
# chain: ALASAKEAANAELDC(maleimide‑DOTA)YGVSDFYKRLIDKAKTVEGVEALKDAILAALP-NH2
# notes: Made by solid phase peptide synthesis; also called DOTA-conjugated PEP07834; maleimide-DOTA-conjugated PEP07834-amide
# Key:
# [1] = target: T1, albumin from mouse (mouse, UniProt P07724 25-608); assay: SPR (Biacore 2000): mouse albumin immobilised to 858 RU, PEP08296 injected at 40 nM for 5 min, then HBS-EP
# T1 construct: also called MSA
# Procedure: (§1) The albumin binding polypeptides were injected at a constant flow-rate of 50 μl/min for 5 minutes, followed by injection of HBS-EP for 60 minutes. The surfaces were regenerated with one injection of 25 μl HCl, 10 mM. All samples were run in duplicates.
# (§2) After subtraction of reference surface and buffer injection, curves were fitted to a 1:1 (Langmuir) binding model using BIAevaluation software with correction for mass transfer and with RUmax set as a local parameter.
# [2] = target: T2, albumin from cynomolgus monkey (cynomolgus monkey, UniProt A2V9Z4 25-608); assay: SPR (Biacore 2000): cynomolgus albumin immobilised to 1046 RU, PEP08296 injected at 40 nM for 5 min, then HBS-EP
# T2 construct: also called CSA
# Procedure: as §1, §2
# [3] = target: T3, albumin from dog (dog, UniProt P49822 25-608); assay: SPR (Biacore 2000): dog albumin immobilised to 1053 RU, PEP08296 injected at 40 nM for 5 min, then HBS-EP
# T3 construct: also called DSA
# Procedure: as §1, §2
# [4] = target: T4, albumin from rat (rat, UniProt P02770 25-608); assay: SPR (Biacore 2000): rat albumin immobilised to 831 RU, PEP08296 injected at 40 nM for 5 min, then HBS-EP
# T4 construct: also called RSA
# Procedure: as §1, §2
# [5] = target: T5, human serum albumin (human, UniProt P02768 25-609); assay: SPR (Biacore 2000): human albumin immobilised to 1130 RU, PEP08296 injected at 40 nM for 5 min, then HBS-EP
# T5 construct: In the purification steps HSA-Sepharose (GE Healthcare) was used instead of ALBUCULT; also called HSA; ALBUCULT (Novozymes)
# Procedure: as §1, §2
# [6] = target: T2, albumin from cynomolgus monkey; assay: SPR (Biacore 2000): cynomolgus albumin immobilised to 1046 RU, PEP06923 injected at 40 nM for 5 min, then HBS-EP
# Procedure: as §1, §2
# [7] = target: T4, albumin from rat; assay: SPR (Biacore 2000): rat albumin immobilised to 831 RU, PEP06923 injected at 40 nM for 5 min, then HBS-EP
# Procedure: as §1, §2
# [8] = target: T1, albumin from mouse; assay: SPR (Biacore 2000): mouse albumin immobilised to 858 RU, PEP06923 injected at 40 nM for 5 min, then HBS-EP
# Procedure: as §1, §2
# [9] = target: T3, albumin from dog; assay: SPR (Biacore 2000): dog albumin immobilised to 1053 RU, PEP06923 injected at 40 nM for 5 min, then HBS-EP
# Procedure: as §1, §2
# [10] = target: T2, albumin from cynomolgus monkey; assay: SPR (Biacore 2000): cynomolgus albumin immobilised to 1046 RU, PEP07986 injected at 40 nM for 5 min, then HBS-EP
# Procedure: as §1, §2
# [11] = target: T5, human serum albumin; assay: SPR, Biacore 2000, HSA immobilised
# T2 sequence (A2V9Z4 25-608 limits assumed): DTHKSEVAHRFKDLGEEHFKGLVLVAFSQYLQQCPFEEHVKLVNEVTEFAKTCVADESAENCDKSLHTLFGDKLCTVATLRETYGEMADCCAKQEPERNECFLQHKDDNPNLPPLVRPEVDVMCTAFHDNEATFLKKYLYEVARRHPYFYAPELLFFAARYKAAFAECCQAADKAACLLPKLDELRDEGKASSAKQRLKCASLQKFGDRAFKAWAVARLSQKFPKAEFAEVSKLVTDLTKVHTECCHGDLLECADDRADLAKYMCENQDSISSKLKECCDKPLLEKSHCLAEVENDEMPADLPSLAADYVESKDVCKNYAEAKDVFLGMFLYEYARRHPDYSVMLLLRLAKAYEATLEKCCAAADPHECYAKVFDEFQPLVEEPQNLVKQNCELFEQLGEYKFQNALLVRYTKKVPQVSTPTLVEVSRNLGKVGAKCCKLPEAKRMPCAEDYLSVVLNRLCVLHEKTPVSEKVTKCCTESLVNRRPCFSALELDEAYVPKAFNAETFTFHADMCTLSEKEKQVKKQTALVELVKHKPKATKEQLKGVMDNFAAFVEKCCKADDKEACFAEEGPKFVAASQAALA
# T3 sequence (P49822 25-608 limits assumed): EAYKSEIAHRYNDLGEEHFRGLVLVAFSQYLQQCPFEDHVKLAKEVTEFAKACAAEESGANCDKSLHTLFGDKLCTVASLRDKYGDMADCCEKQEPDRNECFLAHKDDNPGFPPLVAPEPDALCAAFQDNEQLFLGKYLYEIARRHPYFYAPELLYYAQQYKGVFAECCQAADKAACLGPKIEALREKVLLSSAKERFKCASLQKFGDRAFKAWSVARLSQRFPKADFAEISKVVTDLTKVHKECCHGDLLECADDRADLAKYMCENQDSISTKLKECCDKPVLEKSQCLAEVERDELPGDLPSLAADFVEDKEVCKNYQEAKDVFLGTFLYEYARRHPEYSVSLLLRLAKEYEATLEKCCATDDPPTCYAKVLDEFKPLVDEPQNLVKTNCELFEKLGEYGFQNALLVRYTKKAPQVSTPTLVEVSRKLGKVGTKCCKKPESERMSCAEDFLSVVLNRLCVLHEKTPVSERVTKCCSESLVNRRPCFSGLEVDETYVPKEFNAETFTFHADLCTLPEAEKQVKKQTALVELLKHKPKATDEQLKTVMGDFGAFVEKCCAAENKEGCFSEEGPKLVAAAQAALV
# T1 sequence (P07724 25-608 limits assumed): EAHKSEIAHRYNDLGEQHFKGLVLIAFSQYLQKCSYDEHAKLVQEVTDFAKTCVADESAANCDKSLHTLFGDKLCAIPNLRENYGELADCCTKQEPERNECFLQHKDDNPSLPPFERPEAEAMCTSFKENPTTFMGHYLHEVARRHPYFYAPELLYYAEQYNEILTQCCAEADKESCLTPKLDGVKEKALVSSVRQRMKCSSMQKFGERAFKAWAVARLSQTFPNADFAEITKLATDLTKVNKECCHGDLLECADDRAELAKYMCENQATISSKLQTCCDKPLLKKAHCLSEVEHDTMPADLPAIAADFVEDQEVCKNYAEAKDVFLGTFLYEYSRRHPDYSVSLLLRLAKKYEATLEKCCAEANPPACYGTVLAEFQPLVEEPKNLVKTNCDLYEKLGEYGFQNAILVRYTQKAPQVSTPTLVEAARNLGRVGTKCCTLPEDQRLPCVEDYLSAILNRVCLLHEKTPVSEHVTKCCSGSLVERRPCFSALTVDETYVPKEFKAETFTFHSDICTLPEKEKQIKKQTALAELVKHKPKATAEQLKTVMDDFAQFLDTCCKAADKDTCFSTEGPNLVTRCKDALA
# T4 sequence (P02770 25-608 limits assumed): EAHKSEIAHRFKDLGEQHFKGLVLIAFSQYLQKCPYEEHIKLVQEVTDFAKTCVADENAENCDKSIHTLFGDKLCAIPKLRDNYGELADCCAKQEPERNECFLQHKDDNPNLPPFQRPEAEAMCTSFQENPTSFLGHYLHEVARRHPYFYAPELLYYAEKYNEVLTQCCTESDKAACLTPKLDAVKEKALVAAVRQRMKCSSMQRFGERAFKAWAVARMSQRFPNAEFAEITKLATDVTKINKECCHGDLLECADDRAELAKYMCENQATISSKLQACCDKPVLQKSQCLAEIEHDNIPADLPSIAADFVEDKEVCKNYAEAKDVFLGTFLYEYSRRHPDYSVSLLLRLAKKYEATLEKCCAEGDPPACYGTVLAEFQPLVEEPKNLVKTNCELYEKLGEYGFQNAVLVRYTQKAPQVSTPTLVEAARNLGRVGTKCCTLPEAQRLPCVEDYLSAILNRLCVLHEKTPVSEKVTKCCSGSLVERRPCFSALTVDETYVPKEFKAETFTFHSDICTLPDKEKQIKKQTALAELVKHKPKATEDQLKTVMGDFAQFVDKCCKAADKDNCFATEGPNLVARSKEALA
binder,measurement,setting,value
B1,binding result,[1],binds
same,binding result,[2],binds
same,binding result,[3],binds
same,binding result,[4],binds
same,binding result,[5],binds
B2,binding result,[6],binds
same,binding result,[7],binds
same,binding result,[8],binds
same,binding result,[9],binds
B3,binding result,[10],binds
B4,binding result,[11],binds

# Reference: patent publication US20190375799A1 (Affibody, published 2019)
